This assay concerns the target human CD300a expressed on Hek293T cells (HekCD300a) (human). The assay is described as follows: cell-based or functional assay.

“goat polyclonal antibody to CD300a (AF2640)”: the inhibition of DV2 JAM infection of HekCD300a cells (flow cytometry) is 80%.

The record behind these values is patent US20170000849A1, “CD300A RECEPTORS AS VIRUS ENTRY COFACTORS” (INSTITUT NATIONAL DE LA SANTE ET DE LA RECHERCHE MEDICALE …, priority 2013, published 2017).
